According to IntAct's records for PubMed 19765080:

B1: G protein-activated inward rectifier potassium channel 1 (Rattus norvegicus (Rat)), P63251 (parent)
chain: MSALRRKFGDDYQVVTTSSSGSGLQPQGPGQGPQQQLVPKKKRQRFVDKNGRCNVQHGNLGSETSRYLSDLFTTLVDLKWRWNLFIFILTYTVAWLFMASMWWVIAYTRGDLNKAHVGNYTPCVANVYNFPSAFLFFIETEATIGYGYRYITDKCPEGIILFLFQSILGSIVDAFLIGCMFIKMSQPKKRAETLMFSEHAVISMRDGKLTLMFRVGNLRNSHMVSAQIRCKLLKSRQTPEGEFLPLDQLELDVGFSTGADQLFLVSPLTICHVIDAKSPFYDLSQRSMQTEQFEVVVILEGIVETTGMTCQARTSYTEDEVLWGHRFFPVISLEEGFFKVDYSQFHATFEVPTPPYSVKEQEEMLLMSSPLIAPAITNSKERHNSVECLDGLDDISTKLPSKLQKITGREDFPKKLLRMSSTTSEKAYSLGDLPMKLQRISSVPGNSEEKLVSKTTKMLSDPMSQSVADLPPKLQKMAGGPTRMEGNLPAKLRKMNSDRFT

Legend:
Conditions in all cases: with kapca_bovin PRKACA
[1] = variants of: B1
[2] = variants of: B1; remark: listed apart in the source
[3] = variants of: B1; remark: listed apart in the source
[4] = variants of: B1; remark: listed apart in the source
[5] = variants of: B1; remark: listed apart in the source

## T407C
[1]
  effect of a mutation on the interaction: decreasing interaction
[2]
  effect of a mutation on the interaction: disrupting interaction

## S401C
[3]
  effect of a mutation on the interaction: decreasing interaction
[2]
  effect of a mutation on the interaction: disrupting interaction

## S385C
[4]
  effect of a mutation on the interaction: disrupting interaction
[5]
  effect of a mutation on the interaction: decreasing interaction
